Data on two molecules can be found in patent publication US20240043537A1.

In assay [1] the target is CD3 (as used for the BIACORE kinetics of Table 11) (UniProt P07766). As to the kind of experiment: SPR (BIACORE). For orientation: Surface plasmon resonance follows binding to a sensor surface in real time, without labels.
Another assay concerns the target CD3 on T-cells (UniProt P07766). As to the kind of experiment: cell-based or functional assay.

CD3 on T-cells, sequence (P07766 23-207): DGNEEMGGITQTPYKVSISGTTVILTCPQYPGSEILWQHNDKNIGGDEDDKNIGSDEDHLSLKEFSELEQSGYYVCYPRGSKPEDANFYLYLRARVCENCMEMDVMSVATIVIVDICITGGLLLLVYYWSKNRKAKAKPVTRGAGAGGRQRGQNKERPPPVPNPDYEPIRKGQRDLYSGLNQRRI
CD3 (as used for the BIACORE kinetics of Table 11), sequence (P07766 23-126): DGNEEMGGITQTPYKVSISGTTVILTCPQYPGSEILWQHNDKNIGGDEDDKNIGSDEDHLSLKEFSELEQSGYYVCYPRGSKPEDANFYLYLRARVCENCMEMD

B1: DART-A-M2 (bispecific antibody)
chain 1: DFVMTQSPDSLAVSLGERVTMSCKSSQSLLNSGNQKNYLTWYQQKPGQPPKLLIYWASTRESGVPDRFSGSGSGTDFTLTISSLQAEDVAVYYCQNDYSYPYTFGQGTKLEIKGGGSGGGGEVQLVESGGGLVQPGGSLRLSCAASGFTFSTYAMNWVRQAPGKGLEWVGRIRSKYNNYATYYADSVKDRFTISRDDSKNSLYLQMNSLKTEDTAVYYCVRHKNFGNSYVTWFAYWGQGTLVTVSSGGCGGGKVAALKEKVAALKEKVAALKEKVAALKE
chain 2: QAVVTQEPSLTVSPGGTVTLTCRSSTGAVTTSNYANWVQQKPGQAPRGLIGGTNKRAPWTPARFSGSLLGGKAALTITGAQAEDEADYYCALWYSNLWVFGGGTKLTVLGGGGSGGGGEVQLVQSGAELKKPGASVKVSCKASGYTFTDYYMKWVRQAPGQGLEWIGDIIPSNGATFYNQKFKGRVTITVDKSTSTAYMELSSLRSEDTAVYYCARSHLLRASWFAYWGQGTLVTVSSGGCGGGEVAALEKEVAALEKEVAALEKEVAALEK
The Kd is a measure of binding affinity in units of concentration. In general, koff refers to the rate constant with which the complex falls apart. Low readings indicate slow dissociation, high ones fast dissociation. Usually kon stands for the rate constant with which the complex forms. A higher kon goes with faster complex formation. Consider B1, for which, in assay [1], the Kd is 12.7 nM, the R (KD ratio to DART-A-WT) worked out at 1.6, the R (ka ratio to DART-A-WT) turned out to be 6.1 and the R (kd ratio to DART-A-WT) amounted to 9.6. In assay [1], this molecule yielded a koff of 0.0391 s⁻¹ and a kon of 3.07e+06 M⁻¹ s⁻¹. In addition, in the assay with CD3 on T-cells, the EC50 of cytolysis at 18 hours (CTL assay, Pan-T-cells and MOLM-13, E:T = 5:1) came out at 8.11 ng/mL; the EC50 of cytolysis at 42 hours (CTL assay, Pan-T-cells and MOLM-13, E:T = 5:1) worked out at 0.693 ng/mL; the R: ratio of 18 hour EC50 to DART-A-WT (CTL assay, Pan-T-cells and MOLM-13, E:T = 5:1) came out at 103; the R: ratio of 42 hour EC50 to DART-A-WT (CTL assay, Pan-T-cells and MOLM-13, E:T = 5:1) worked out at 247. Besides, in the assay with CD3 on T-cells, the max % CytoTox at 18 hours (CTL assay, Pan-T-cells and MOLM-13, E:T = 5:1) came out at 32.3%; the max % CytoTox at 42 hours (CTL assay, Pan-T-cells and MOLM-13, E:T = 5:1) was determined as 32.8%.

B2: DART-A-M1 (bispecific antibody)
chain 1: DFVMTQSPDSLAVSLGERVTMSCKSSQSLLNSGNQKNYLTWYQQKPGQPPKLLIYWASTRESGVPDRFSGSGSGTDFTLTISSLQAEDVAVYYCQNDYSYPYTFGQGTKLEIKGGGSGGGGEVQLVESGGGLVQPGGSLRLSCAASGFTFSTYAMNWVRQAPGKGLEWVGRIRSKYNNYATYYADSVKDRFTISRDDSKNSLYLQMNSLKTEDTAVYYCVRHGNFGNSYVTWFAYWGQGTLVTVSSGGCGGGKVAALKEKVAALKEKVAALKEKVAALKE
chain 2: QAVVTQEPSLTVSPGGTVTLTCRSSTGAVTTSNYANWVQQKPGQAPRGLIGGTNKRAPWTPARFSGSLLGGKAALTITGAQAEDEADYYCALWYSNLWVFGGGTKLTVLGGGGSGGGGEVQLVQSGAELKKPGASVKVSCKASGYTFTDYYMKWVRQAPGQGLEWIGDIIPSNGATFYNQKFKGRVTITVDKSTSTAYMELSSLRSEDTAVYYCARSHLLRASWFAYWGQGTLVTVSSGGCGGGEVAALEKEVAALEKEVAALEKEVAALEK
As for B2, in assay [1], the Kd was found to be 159 nM, the R (KD ratio to DART-A-WT) is 19, the R (ka ratio to DART-A-WT) is 0.8 and the R (kd ratio to DART-A-WT) came to 16. In assay [1], this molecule returned a koff of 0.065 s⁻¹ and a kon of 408000 M⁻¹ s⁻¹. In the assay with CD3 on T-cells, the EC50 of cytolysis at 18 hours (CTL assay, Pan-T-cells and MOLM-13, E:T = 5:1) came out at 19.6 ng/mL; the EC50 of cytolysis at 42 hours (CTL assay, Pan-T-cells and MOLM-13, E:T = 5:1) came to 2.34 ng/mL; the R: ratio of 18 hour EC50 to DART-A-WT (CTL assay, Pan-T-cells and MOLM-13, E:T = 5:1) turned out to be 249; the R: ratio of 42 hour EC50 to DART-A-WT (CTL assay, Pan-T-cells and MOLM-13, E:T = 5:1) amounted to 832. In addition, in the assay with CD3 on T-cells, the max % CytoTox at 18 hours (CTL assay, Pan-T-cells and MOLM-13, E:T = 5:1) worked out at 32.3%; the max % CytoTox at 42 hours (CTL assay, Pan-T-cells and MOLM-13, E:T = 5:1) worked out at 32.4%.
